Consider five molecules from article PMC10504261, “Metabolism of plant-derived toxins from its insect host increases the success of the entomopathogenic fungus Beauveria bassiana” (The ISME Journal, 2023).

For one data set, the system named is C=CCN=C=S. The experiment in a line: purified protein. Conditions: 4 mM GSH (saturating); ITC 25-800 µM; n = 4.
For the next data set, the system named is S=C=NCCc1ccccc1. The experiment in a line: purified protein. The note with it: 4 mM GSH (saturating); ITC 25-800 µM; n = 4.
A further data set addresses T1, BbGSTUre2p2 (Beauveria bassiana, UniProt J5JP22).
T1 construct: gene BBA_04201
The experiment in a line: GSH conjugation, absorbance at […] nm, Michaelis-Menten fit. The note with it: read-out: KM / μM; 4 mM GSH (saturating); ITC 25-800 µM; n = 4.

Another data set has as its target T2, BbGSTe1 (Beauveria bassiana, UniProt J4UX82).
T2 construct: gene BBA_00672
Described as above. Conditions: read-out: KM / μM; 4 mM GSH (saturating); ITC 25-800 µM; n = 4.

For another data set, the target named is T3, BbGSTUre2p3 (Beauveria bassiana, UniProt J4KPJ4).
T3 construct: gene BBA_03339
Described as above. The note with it: read-out: KM / μM; 4 mM GSH (saturating); ITC 25-800 µM; n = 4.

A further data set has as its target T4, BbGSTN21 (Beauveria bassiana, UniProt J5JKP3).
T4 construct: gene BBA_07410
The description is as above. Conditions: read-out: KM / μM; 4 mM GSH (saturating); ITC 25-800 µM; n = 4.

T3 sequence (J4KPJ4 entry or part of it): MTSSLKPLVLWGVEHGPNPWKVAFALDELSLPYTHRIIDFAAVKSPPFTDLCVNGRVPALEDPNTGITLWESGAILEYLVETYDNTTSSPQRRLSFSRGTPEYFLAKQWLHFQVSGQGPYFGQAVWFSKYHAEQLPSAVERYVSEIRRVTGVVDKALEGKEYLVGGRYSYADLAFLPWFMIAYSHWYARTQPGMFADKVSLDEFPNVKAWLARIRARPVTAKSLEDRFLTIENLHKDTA
T2 sequence (J4UX82 entry or part of it): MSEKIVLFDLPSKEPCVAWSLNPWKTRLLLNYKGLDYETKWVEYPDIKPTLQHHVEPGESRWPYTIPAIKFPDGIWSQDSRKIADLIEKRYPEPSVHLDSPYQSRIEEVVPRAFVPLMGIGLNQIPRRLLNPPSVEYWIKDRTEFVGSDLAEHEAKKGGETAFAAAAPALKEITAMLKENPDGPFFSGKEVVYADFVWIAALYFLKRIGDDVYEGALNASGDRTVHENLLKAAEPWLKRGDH
T1 sequence (J5JP22 entry or part of it): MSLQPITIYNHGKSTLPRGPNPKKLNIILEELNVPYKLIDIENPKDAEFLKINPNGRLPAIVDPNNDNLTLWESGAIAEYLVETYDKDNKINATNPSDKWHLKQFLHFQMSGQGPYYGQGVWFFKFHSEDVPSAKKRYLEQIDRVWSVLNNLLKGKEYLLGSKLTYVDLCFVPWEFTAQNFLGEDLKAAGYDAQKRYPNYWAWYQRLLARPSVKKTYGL
T4 sequence (J5JKP3 entry or part of it): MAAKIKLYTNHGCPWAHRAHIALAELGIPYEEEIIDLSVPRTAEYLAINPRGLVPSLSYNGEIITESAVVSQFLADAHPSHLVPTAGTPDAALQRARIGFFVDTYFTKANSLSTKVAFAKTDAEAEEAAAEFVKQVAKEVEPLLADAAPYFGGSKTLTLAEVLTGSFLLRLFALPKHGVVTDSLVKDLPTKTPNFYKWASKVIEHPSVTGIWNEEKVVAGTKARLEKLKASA

One may read the Vmax as the rate approached at saturating substrate. Broadly, the kcat is the number of substrate molecules converted per active site and unit of time at saturation. A word on the kcat/Km: it is the turnover number divided by the Michaelis constant. Regarding “BbGSTUre2p2 (Beauveria bassiana ARSEF 2860)”, in the data set on C=CCN=C=S, the Km came out at 487.23 ± 266.11 µM, the maximum rate (Vmax) amounted to 0.44 µmol/min/mg, the turnover number (kcat) worked out at 0.18 ± 0.05 s⁻¹ and the kcat/Km came to 370 ± 100 M⁻¹ s⁻¹. For the same molecule, in the data set on S=C=NCCc1ccccc1, the Km stood at 223.06 ± 86.81 µM, the Vmax amounted to 0.15 µmol/min/mg, the kcat turned out to be 0.06 ± 0.01 s⁻¹ and the kcat/Km worked out at 280 ± 50 M⁻¹ s⁻¹.

BbGSTe1 (Beauveria bassiana ARSEF 2860): in the data set with C=CCN=C=S, the Km came out at 312.75 ± 100.06 µM, the Vmax amounted to 0.41 µmol/min/mg, the kcat is 0.19 ± 0.02 s⁻¹ and the kcat/Km turned out to be 590 ± 80 M⁻¹ s⁻¹. In the data set on S=C=NCCc1ccccc1, the Km came to 860.76 ± 561.56 µM, the Vmax was 1.9 µmol/min/mg, the kcat turned out to be 0.88 ± 0.35 s⁻¹ and the kcat/Km was 1020 ± 410 M⁻¹ s⁻¹.

Regarding `C[S+]([O-])CCCCN=C=S` (stereo not drawn) [1a, 4MSOB-ITC], the Km on BbGSTUre2p2 came to 1210 ± 890 µM; at BbGSTe1, 1220 ± 839 µM; on BbGSTUre2p3, 747 ± 338 µM; on BbGSTN21, 1130 ± 578 µM.

As to “BbGSTUre2p3 (Beauveria bassiana ARSEF 2860)”, in the data set on C=CCN=C=S, the Km is recorded as 831.61 ± 572.57 µM, the Vmax was 0.59 µmol/min/mg, the turnover number (kcat) turned out to be 0.27 ± 0.11 s⁻¹ and the kcat/Km came out at 320 ± 130 M⁻¹ s⁻¹. In the data set with S=C=NCCc1ccccc1, the Km came to 71.76 ± 38.91 µM, the Vmax came to 0.08 µmol/min/mg, the kcat stood at 0.04 ± 0.01 s⁻¹ and the kcat/Km is 490 ± 80 M⁻¹ s⁻¹.

For the molecule “BbGSTN21 (Beauveria bassiana ARSEF 2860)”, in the data set with C=CCN=C=S, the Km was found to be 448.48 ± 226.89 µM, the Vmax was 2.39 µmol/min/mg, the kcat came to 1 ± 0.24 s⁻¹ and the kcat/Km stood at 2230 ± 540 M⁻¹ s⁻¹. In the data set with S=C=NCCc1ccccc1, the Km came to 1191.89 ± 1464.92 µM, the Vmax came out at 0.97 µmol/min/mg, the kcat stood at 0.41 ± 0.36 s⁻¹ and the kcat/Km was found to be 340 ± 300 M⁻¹ s⁻¹.
